As usually defined, the Kd is the concentration at which binding is half-saturated. The koff is the rate constant with which the complex falls apart. The kon is the second-order rate constant of association.

The target in the test is T1, TOM70 (full-length, recombinant, analyte of the BLI) (human, UniProt O94826 1-608).
T1 construct: also called Mitochondrial import receptor subunit TOM70
T1 sequence (looked up): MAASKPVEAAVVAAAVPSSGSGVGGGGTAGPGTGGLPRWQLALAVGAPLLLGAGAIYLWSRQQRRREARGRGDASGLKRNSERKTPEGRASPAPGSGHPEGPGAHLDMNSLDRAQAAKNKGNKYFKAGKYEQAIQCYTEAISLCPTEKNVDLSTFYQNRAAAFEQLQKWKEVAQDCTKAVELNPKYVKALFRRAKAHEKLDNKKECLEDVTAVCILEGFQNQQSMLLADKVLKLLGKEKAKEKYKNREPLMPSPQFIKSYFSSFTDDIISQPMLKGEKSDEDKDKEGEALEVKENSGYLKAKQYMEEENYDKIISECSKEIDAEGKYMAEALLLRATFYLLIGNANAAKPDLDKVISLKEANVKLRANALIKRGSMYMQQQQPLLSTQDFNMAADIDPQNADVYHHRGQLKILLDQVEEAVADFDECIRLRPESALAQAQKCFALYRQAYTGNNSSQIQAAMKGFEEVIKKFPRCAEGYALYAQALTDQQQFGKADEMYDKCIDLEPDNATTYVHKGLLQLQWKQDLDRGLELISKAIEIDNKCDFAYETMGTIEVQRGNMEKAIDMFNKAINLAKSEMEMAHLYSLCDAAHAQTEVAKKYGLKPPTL
The experiment in a line: BLI; […]; kinetics ([…]) buffer 1x PBS pH 7.4, 0.1% BSA, 0.02% Tween-20; association 5 min, dissociation 5 min; […]; 1:1 global fit. The note with it: both partners purified. (Biolayer interferometry detects binding as a change in optical thickness at a sensor tip.)

B1: SARS-CoV Orf9b, biotinylated (C-terminal Avi-His6) (natural protein)
chain: MDPNQTNVVPPALHLVDPQIQLTITRMEDAMGQGQNSADPKVYPIILRLGSQLSLSMARRNLDSLEARAFQSTPIVVQMTKLATTEELPDEFVVVTAK
notes: also called Biotinylated Orf9b
Take B1: the Kd came out at 41.6 ± 1.01 nM, the koff is 0.00244 s⁻¹ and the kon amounted to 58600 M⁻¹ s⁻¹.
